These results are taken from the domain aggregation screens of Martell et al. (2025).
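Further: 20 min heating vs room temperature control held 20 min.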

A short description of this data set: soluble fraction after stress (log2 fold change); higher = more stays soluble; pooled small domains, quantitative proteomics. Conditions: stress: 75 degC.
With “HMIKDSKAAYKILGVDENATNEEIKKAYRQLVINHHPDKVSHLGEDIQRAANEKLKQINAAYDEIKKQRGF”, the “soluble fraction (log2)” value was -0.0128. For “HMIKEGDLVFIWNPKKGDSFLIKVQPGQSQGTHFGQIKHSEIMEHNYGEGIRTPKGQVYYLLRPTLGEFTR” the value was -1.4; for “HMIKEVGYEKFMQMTEEEDIGRVEIDQEENQITFTDKDETAIYKTGMVDDPDLTERLYDAGAEFS”, 0.0721; for “HMIKIDESTLSEDELKIFEILKIEDKNIENIAIESKILPGKLLATLMNMEMKKIVVQYPGKVFGLNRKLK”, -1.81.

With “HMIKKAILPVAGLGTRFLPASKSIPKEMVTVVDRPAIEYVVREAVEAGIEQIILVTHSSKASIENYFDR”, the “soluble fraction (log2)” value was -0.192.

As to “HMIKKLDIEPIIKSVVDDFNNIYKLKRGITISYLNDGKNKYFINGIENRIEQIIANLLDNSISFSEDNKDV”, the “soluble fraction (log2)” value was determined as 0.0165. For “HMIKLSTNENTALRLVMERGLVTESELKGLFDNPVAVMESLISKMIETNTHWIHSERSENGEWVYAWQ” the value was -2.01; for “HMIKNDIGKFIKLYRETHQWSQRELAEHLGVSQRNVSYYEKGERIPPADVLKKLSTLFDVPVDVLLGLK”, -1.18. Consider “HMIKRDLAFSEFIAEVKAGQVREVTIKGNSISGNLNDGREFNTYAPNDPNLVKTLTDQGVLIRAIPLE”, for which the “soluble fraction (log2)” value is 0.0691. For “HMILNPQELGERIRKLRLKRNKTQSYFADMLYISSSYLALIESGKRVPNLDLLIHIAKFTDVTLDYLVFG” the value was -1.24; for “HMILVLKPGAPEDLKNELIHDIEKMGLRVHVSVGEGTTIIGLIGDTSKISKYTFSSYEIVSNVLRVT”, -0.188; for “HMILYDDEYKGPRYRYGLHSRPLSPGAVPKGFIIHSDRPHPDFRHGTLDYPVKLPDDRAANFELIFIGEFD”, -1.59. With “HMIMMTLGEKIRSIRKAKGMTQQELAEKLNTTKQTIGKYEKGIVTNLPLFRINELARALSTTPAYLTGW”, the “soluble fraction (log2)” value is -1.46. In the case of “HMIMPSDATEAKLLGVLGNEPLHVDEIRNQAELPIEKVSAALALMELKGMVRQVGGMNYVAVR”, the “soluble fraction (log2)” value was -0.0915.

Turning to “HMIMQTTSDRINQRMRDLGLQHKDLVAATGASKGTVTNWINGVNNPTGKRLVQLAQALKTTSSWLLTGN”, the “soluble fraction (log2)” value is -0.481. For “HMINDPSALGQRAFVDELLWMAGYVPEKIEIYQTLPNNSRVYRVKLDSVNGGFIFIRWDKKKKEHYV”, the “soluble fraction (log2)” value worked out at 0.106. With “HMINEEELLKIENIKRKYPDSKAALMPVLYFFQEKYGFISDDSIKEISQLLNISEVDIKGVVSFYEMFHEK”, the “soluble fraction (log2)” value was -1.32. As to “HMINEVVSLRDVPSFIGKAKRDVIRIAEENNLKIKINGNGYVKEQTPNPGNKYKSNQEIKVFLEPG”, the “soluble fraction (log2)” value is -0.0743.

“HMINFSKNIISDTTSIKEAIEILNIISGRDNHILFVLNDKRQLIGTLSDGDVRRGMLASKTISQSVTEVM”: the “soluble fraction (log2)” value is -0.402. For the sequence “HMINIDESIDESLSEDDAVLDLLERASASFTKAQEALLEGDLGRYQTLIEQADRLVAKALELLDEKN”, the “soluble fraction (log2)” value was -0.808. For “HMINIQYSYNDGKETLHNLSPEVIAEKIMDDPNGYHIVWKQGMVGWVNANDIDDIAKLLRQKK” the value was -0.311. For “HMINKDNLIEEILKFINTKIADISSNNPLFDIVAKPYISKVVTNNVSKLDKALSLIADDKGMVDADGLLT” the value was -0.129.

As for “HMINLDGIGEKISRLRKEQGVTIRELSEYTGYSVGFLSNLETGKNSPTVESLQRVAEALRTDIIEILTK”, the “soluble fraction (log2)” value was -1.2. Take “HMINLNEVLANFQKSYPNLAGFKYDQGMDALVYEGNYIRLNGYMLSRINPTLFSMSPDDIFTYLKNGF”: the “soluble fraction (log2)” value was -3.17. On to “HMINRMGRLVEALSHMIANTKPGARLPSEPELARQLGVSRATLREAMRTFEAQGMIHRRQGAGTFVVH”, for which the “soluble fraction (log2)” value is -1.27. In the case of “HMINYSQKQLIAIQDELSKRFQALENESTKNNVTGFGVGLHYIDIDLIVNTPEKQKEFREKIMDSPAFRFN”, the “soluble fraction (log2)” value was -0.893. Then “HMINYYELLKLDMNAAHEEINDAIKLESEKNTIPEDQIRTMKSIFFNTEFKKEYDQRLMNFLLT”, with -0.671.
